Data reported in patent US12714676B2, “Compositions and methods for targeted delivery of therapeutics using carriers” (VESSELON, INC., priority 2020, dated 2026).

Experiments:
[1] = HT29 xenograft, bevacizumab-awwb concentration in excised tumors (HPLC); type: in vivo, athymic nude mice; conditions: Day 3
Protocol: A non-GLP study was conducted (Metis Labs, Ronkonkoma, NY, USA) using Imagent microbubbles, a human monoclonal antibody and ultrasound with a TE7 and P4-2S probe (Mindray North America, New Jersey, USA); settings used were 2.2 MHz frequency, 0.35 and 0.70 mechanical indexes (MI) during insonation, once every 10 seconds, a microbubble destruct pulse of 1.3 MI lasting 1,100 milliseconds was applied. Total insonation time of 5 minutes per animal was used. Imagent was conjugated with bevacizumab-awwb (Mvasi®, Amgen, Thousand Oaks, CA, USA) (“eBev”) in HT29 human colorectal carcinoma model.
Thirty-six athymic nude mice (The Jackson Laboratory, Bar Harbor, ME, USA) were randomized into 9 groups of 4 mice and once tumor volumes reached ~200 mm^3, the mice were treated once on day 1. Animals were euthanized on Day 3. The bevacizumab-awwb (either eBev or free bevacizumab-awwb) dose was 100 μL of either a 25:1, 50:1, or 5:1 dilution, depending on the experimental arm, via intravenous administration (i.v.) via jugular vein catheter (Instech One Channel Mouse Button, Instech, Plymouth Meeting, PA, USA). […]

[2] = cited from earlier work
[3] = in the human body; cited from earlier work
[4] = patients, package insert; cited from earlier work

Compound: bevacizumab-awwb: bevacizumab-awwb (Mvasi, Amgen), human monoclonal antibody
- mean concentration of bevacizumab-awwb as measured in the tumors ([1]; Group 2: free bevacizumab-awwb only, 25:1 dilution, i.v.): around 3 μg
- mean concentration of bevacizumab-awwb as measured in the tumors ([1]; Groups 3a-3d: free bevacizumab-awwb 25:1 co-administered with Imagent microbubbles + ultrasound): around 3 μg

Compound: FC(F)(F)C(F)(F)C(F)(F)C(F)(F)C(F)(F)C(F)(F)F [Perfluorohexane]
- water solubility, times lower than octafluoropropane [2]: 704 times
- water solubility, times lower than sulfur hexafluoride [2]: 1,000 times

Compound: O=C1[O][Pt]2([NH][C@@H]3CCCC[C@H]3[NH]2)[O]C1=O [Oxaliplatin]
- half-life [3]: about 14 minutes

Compound: Avastin: recombinant humanized monoclonal IgG1 antibody, vascular endothelial growth factor inhibitor
- Grade 3-5 hemorrhagic events [4]: 0.4-7.0%
- Grades 3-4 hypertension [4]: 5-18%
- Grades 3-5 Arterial Thromboembolic Events [4]: 5%
- gastrointestinal perforations [4]: 0.3-3.0%
- ovarian failure [4]: 34%
- proteinuria [4]: 20%
